± gives the uncertainty stated by the source.
B1: Pyruvate dehydrogenase protein X component, mitochondrial, residues 181 to 227; numbered along this chain, O00330 (parent)
chain: RFRLSPAARNILEKHSLDASQGTATGPRGIFTKEDALKLVQLKQTGK

Variants of: B1
Test: abundance fitness (aPCA) (normalised: wild type 0, dead -1); higher = more abundant; growth selection in yeast, the domain comes from the species named
Details: Homo sapiens
For RFRLSPAARNILEKHSKDASQGTATGPRGIFTKEDALKLVQLKQTGK [L17K], the abundance fitness was -0.509 ± 0.076. For RFRLSPAARNILEKHSMDASQGTATGPRGIFTKEDALKLVQLKQTGK [L17M], the abundance fitness was -0.134 ± 0.098. RFRLSPAARNILEKHSNDASQGTATGPRGIFTKEDALKLVQLKQTGK [L17N] showed an abundance fitness of -0.687 ± 0.066. Work on RFRLSPAARNILEKHSPDASQGTATGPRGIFTKEDALKLVQLKQTGK [L17P] yielded an abundance fitness of -0.07 ± 0.081. In the case of RFRLSPAARNILEKHSQDASQGTATGPRGIFTKEDALKLVQLKQTGK [L17Q], the abundance fitness is reported as -0.483 ± 0.12. Variant RFRLSPAARNILEKHSRDASQGTATGPRGIFTKEDALKLVQLKQTGK [L17R] has an abundance fitness of -0.856 ± 0.082. Variant RFRLSPAARNILEKHSSDASQGTATGPRGIFTKEDALKLVQLKQTGK [L17S] has an abundance fitness of -0.486 ± 0.057. Work on RFRLSPAARNILEKHSTDASQGTATGPRGIFTKEDALKLVQLKQTGK [L17T] yielded an abundance fitness of -0.31 ± 0.092. With RFRLSPAARNILEKHSVDASQGTATGPRGIFTKEDALKLVQLKQTGK [L17V] the abundance fitness was -0.331 ± 0.053. Variant RFRLSPAARNILEKHSWDASQGTATGPRGIFTKEDALKLVQLKQTGK [L17W] has an abundance fitness of -0.57 ± 0.055. Variant RFRLSPAARNILEKHSYDASQGTATGPRGIFTKEDALKLVQLKQTGK [L17Y] has an abundance fitness of -0.691 ± 0.17. RFRLSPAARNILEKHSLAASQGTATGPRGIFTKEDALKLVQLKQTGK [D18A] gave an abundance fitness of -0.591 ± 0.11. For RFRLSPAARNILEKHSLCASQGTATGPRGIFTKEDALKLVQLKQTGK [D18C], the abundance fitness was -0.331 ± 0.048. Variant RFRLSPAARNILEKHSLEASQGTATGPRGIFTKEDALKLVQLKQTGK [D18E] has an abundance fitness of -0.815 ± 0.13. Variant RFRLSPAARNILEKHSLFASQGTATGPRGIFTKEDALKLVQLKQTGK [D18F] has an abundance fitness of -0.92 ± 0.12. In the case of RFRLSPAARNILEKHSLGASQGTATGPRGIFTKEDALKLVQLKQTGK [D18G], the abundance fitness is reported as -0.598 ± 0.05. For RFRLSPAARNILEKHSLIASQGTATGPRGIFTKEDALKLVQLKQTGK [D18I], the abundance fitness was -0.336 ± 0.1. With RFRLSPAARNILEKHSLKASQGTATGPRGIFTKEDALKLVQLKQTGK [D18K] the abundance fitness was 0.086 ± 0.088. Variant RFRLSPAARNILEKHSLMASQGTATGPRGIFTKEDALKLVQLKQTGK [D18M] has an abundance fitness of -0.394 ± 0.058. In the case of RFRLSPAARNILEKHSLNASQGTATGPRGIFTKEDALKLVQLKQTGK [D18N], the abundance fitness is reported as 0.028 ± 0.098. Work on RFRLSPAARNILEKHSLPASQGTATGPRGIFTKEDALKLVQLKQTGK [D18P] yielded an abundance fitness of -0.815 ± 0.14. RFRLSPAARNILEKHSLQASQGTATGPRGIFTKEDALKLVQLKQTGK [D18Q] showed an abundance fitness of -0.113 ± 0.067. For RFRLSPAARNILEKHSLRASQGTATGPRGIFTKEDALKLVQLKQTGK [D18R], the abundance fitness was -0.707 ± 0.056. Work on RFRLSPAARNILEKHSLSASQGTATGPRGIFTKEDALKLVQLKQTGK [D18S] yielded an abundance fitness of -0.393 ± 0.058. RFRLSPAARNILEKHSLTASQGTATGPRGIFTKEDALKLVQLKQTGK [D18T] gave an abundance fitness of -0.256 ± 0.054. With RFRLSPAARNILEKHSLVASQGTATGPRGIFTKEDALKLVQLKQTGK [D18V] the abundance fitness was -0.625 ± 0.054. In the case of RFRLSPAARNILEKHSLWASQGTATGPRGIFTKEDALKLVQLKQTGK [D18W], the abundance fitness is reported as -1.06 ± 0.14. In the case of RFRLSPAARNILEKHSLYASQGTATGPRGIFTKEDALKLVQLKQTGK [D18Y], the abundance fitness is reported as -0.605 ± 0.14. For RFRLSPAARNILEKHSLDCSQGTATGPRGIFTKEDALKLVQLKQTGK [A19C], the abundance fitness was -0.186 ± 0.074. For RFRLSPAARNILEKHSLDDSQGTATGPRGIFTKEDALKLVQLKQTGK [A19D], the abundance fitness was -0.355 ± 0.12. Variant RFRLSPAARNILEKHSLDFSQGTATGPRGIFTKEDALKLVQLKQTGK [A19F] has an abundance fitness of -0.59 ± 0.14. For RFRLSPAARNILEKHSLDGSQGTATGPRGIFTKEDALKLVQLKQTGK [A19G], the abundance fitness was -0.136 ± 0.054. For RFRLSPAARNILEKHSLDHSQGTATGPRGIFTKEDALKLVQLKQTGK [A19H], the abundance fitness was -0.323 ± 0.12. Work on RFRLSPAARNILEKHSLDISQGTATGPRGIFTKEDALKLVQLKQTGK [A19I] yielded an abundance fitness of -0.295 ± 0.16. Work on RFRLSPAARNILEKHSLDKSQGTATGPRGIFTKEDALKLVQLKQTGK [A19K] yielded an abundance fitness of -0.602 ± 0.058. Variant RFRLSPAARNILEKHSLDLSQGTATGPRGIFTKEDALKLVQLKQTGK [A19L] has an abundance fitness of -0.412 ± 0.053. RFRLSPAARNILEKHSLDMSQGTATGPRGIFTKEDALKLVQLKQTGK [A19M] showed an abundance fitness of -0.074 ± 0.049. RFRLSPAARNILEKHSLDPSQGTATGPRGIFTKEDALKLVQLKQTGK [A19P] showed an abundance fitness of 0.249 ± 0.06. RFRLSPAARNILEKHSLDQSQGTATGPRGIFTKEDALKLVQLKQTGK [A19Q] gave an abundance fitness of -0.343 ± 0.07. With RFRLSPAARNILEKHSLDRSQGTATGPRGIFTKEDALKLVQLKQTGK [A19R] the abundance fitness was -0.362 ± 0.058. Variant RFRLSPAARNILEKHSLDSSQGTATGPRGIFTKEDALKLVQLKQTGK [A19S] has an abundance fitness of -0.242 ± 0.066. RFRLSPAARNILEKHSLDTSQGTATGPRGIFTKEDALKLVQLKQTGK [A19T] showed an abundance fitness of -0.379 ± 0.048. With RFRLSPAARNILEKHSLDVSQGTATGPRGIFTKEDALKLVQLKQTGK [A19V] the abundance fitness was -0.227 ± 0.053. For RFRLSPAARNILEKHSLDWSQGTATGPRGIFTKEDALKLVQLKQTGK [A19W], the abundance fitness was -0.362 ± 0.044. For RFRLSPAARNILEKHSLDYSQGTATGPRGIFTKEDALKLVQLKQTGK [A19Y], the abundance fitness was -0.236 ± 0.15. Variant RFRLSPAARNILEKHSLDAAQGTATGPRGIFTKEDALKLVQLKQTGK [S20A] has an abundance fitness of -0.056 ± 0.045. In the case of RFRLSPAARNILEKHSLDACQGTATGPRGIFTKEDALKLVQLKQTGK [S20C], the abundance fitness is reported as -0.305 ± 0.094. RFRLSPAARNILEKHSLDADQGTATGPRGIFTKEDALKLVQLKQTGK [S20D] gave an abundance fitness of 0.087 ± 0.082. In the case of RFRLSPAARNILEKHSLDAEQGTATGPRGIFTKEDALKLVQLKQTGK [S20E], the abundance fitness is reported as 0.034 ± 0.052. With RFRLSPAARNILEKHSLDAFQGTATGPRGIFTKEDALKLVQLKQTGK [S20F] the abundance fitness was -0.545 ± 0.068. RFRLSPAARNILEKHSLDAGQGTATGPRGIFTKEDALKLVQLKQTGK [S20G] gave an abundance fitness of -0.192 ± 0.053. Variant RFRLSPAARNILEKHSLDAIQGTATGPRGIFTKEDALKLVQLKQTGK [S20I] has an abundance fitness of -0.655 ± 0.17. Variant RFRLSPAARNILEKHSLDAKQGTATGPRGIFTKEDALKLVQLKQTGK [S20K] has an abundance fitness of -0.108 ± 0.046. RFRLSPAARNILEKHSLDALQGTATGPRGIFTKEDALKLVQLKQTGK [S20L] gave an abundance fitness of -0.345 ± 0.049. RFRLSPAARNILEKHSLDAMQGTATGPRGIFTKEDALKLVQLKQTGK [S20M] showed an abundance fitness of -0.18 ± 0.075.
